Reference: PMC6515139, “Oligomeric Architecture of Mouse Activating Nkrp1 Receptors on Living Cells” (International Journal of Molecular Sciences, 2019)

Key:
[1] = biological target: EGFP-Nkrp1a_C74S (mouse (C57BL/6)) (UniProt P27811); assay: FRET or BRET; homo-FRET (steady-state fluorescence anisotropy of EGFP, time-domain, TCSPC) at the plasma membrane of living transfected Jurkat cells on PLL-coated slides, 37 °C; semi-quantitative, calibrated by monomeric LAT and dimeric CD8α
[2] = biological target: EGFP-Nkrp1a_C88S (mouse (C57BL/6)) (UniProt P27811); assay: as above
[3] = biological target: EGFP-Nkrp1c2 (mouse (C57BL/6)); assay: as above
[4] = biological target: EGFP-Nkrp1a_C74,88S (mouse (C57BL/6)) (UniProt P27811); assay: as above
[5] = biological target: the molecule itself; assay: as above
[6] = biological target: the molecule itself; assay: SEC + other: SDS-PAGE under reducing and non-reducing conditions; refolded ectodomains on calibrated Superdex 75 (Nkrp1a^ECTO: 150 mM NaCl, 15 mM Tris-HCl pH 7.5; the others: 10 mM HEPES pH 7.4, 100 mM NaCl); main peaks analysed on 15% SDS-PAGE

## EGFP-Nkrp1a_C74S (from UniProt P27811 1-227) (receptor)
[1]
  steady-state anisotropy, mean: 0.273
  steady-state anisotropy, median: 0.272

## EGFP-Nkrp1a_C88S (from UniProt P27811 1-227) (receptor)
[2]
  steady-state anisotropy, mean: 0.267
  steady-state anisotropy, median: 0.266

## EGFP-Nkrp1c2 (receptor)
[3]
  steady-state anisotropy, mean: 0.248
  steady-state anisotropy, median: 0.249

## EGFP-Nkrp1a_C74,88S (from UniProt P27811 1-227) (receptor)
[4]
  steady-state anisotropy, mean: 0.285
  steady-state anisotropy, median: 0.283

B1: EGFP-Nkrp1f (receptor, mouse (C57BL/6), UniProt Q8VD98 1-217, looked up)
chain: MDTSKVHGNVKPFRCPGYKQASSPSFSPDACRCPHWHHLALKSGCAGLILLLLSLIGLSVLVRFLVQKPPIEKCSVAAQENRTELTGRSAILECPRYWHPHWNKCLFVSQISRPWAEGRDACSMEDAILLLIENKEELRFVQNLIKGKEQLFFIGLKYVQKEKIWKWIDGSILNPNLLRITGKDKENSCAIISHTEVFSDSCSSDNHWICQKTLIHV
notes: last residue V217; Vector pXJ41; also called f isoform; source: Jurkat, transiently transfected, living cells; COS-7, transiently transfected, in lysate; not shown: EGFP (with spacer GSGGGS), N-terminal, kept
[5]
  steady-state anisotropy, mean: 0.25
  steady-state anisotropy, median: 0.25

B2: EGFP-Nkrp1f_C74S (receptor, mouse (C57BL/6), UniProt Q8VD98 1-217, looked up)
chain: MDTSKVHGNVKPFRCPGYKQASSPSFSPDACRCPHWHHLALKSGCAGLILLLLSLIGLSVLVRFLVQKPPIEKSSVAAQENRTELTGRSAILECPRYWHPHWNKCLFVSQISRPWAEGRDACSMEDAILLLIENKEELRFVQNLIKGKEQLFFIGLKYVQKEKIWKWIDGSILNPNLLRITGKDKENSCAIISHTEVFSDSCSSDNHWICQKTLIHV
notes: Two extra C-terminal residues (Thr-Gly) possible as for m8 (surmise from the primer); also called C74S mutant of Nkrp1f; source: Jurkat, transiently transfected, living cells; COS-7, transiently transfected, in lysate; not shown: EGFP (with spacer GSGGGS), N-terminal, kept
[5]
  steady-state anisotropy, mean: 0.281
  steady-state anisotropy, median: 0.281

B3: Nkrp1c1^ECTO (domain or fragment, mouse (C57BL/6), UniProt P27814 70-223, looked up)
chain: SREKCCVFIQENLNKTTDCSVNLECPQDWLLHRDKCFHVSQVSNTWEEGQADCGRKGATLLLIQDQEELRFLLDSIKEKYNSFWIGLRFTLPDMNWKWINGTTFNSDVLKITGVTENGSCASILGDKVTPESCASDNRWICQKELNHETPSNDS
notes: mouse (C57BL/6) Nkrp1c isoform c1 ectodomain with stalk, residues S70-S223; Cloned into pET-30a(+) between NdeI and HindIII; an initiator Met may precede S70 (surmise); The monomeric form bears cysteamine on C88; the dimeric form has a C88-C88 disulfide; also called Nkrpc1^ECTO; recombinant ectodomain of Nkrp1c1
[6]
  stoichiometry N: 2

B4: EGFP-Nkrp1c1 (receptor, mouse (C57BL/6), UniProt P27814 1-223, looked up)
chain: MDTASIYLGLKPPRTLGAWHESPPSLPPDACRCPRSHRLALKLSCAGLILLVLTLIGMSVLVRVLVQKPSREKCCVFIQENLNKTTDCSVNLECPQDWLLHRDKCFHVSQVSNTWEEGQADCGRKGATLLLIQDQEELRFLLDSIKEKYNSFWIGLRFTLPDMNWKWINGTTFNSDVLKITGVTENGSCASILGDKVTPESCASDNRWICQKELNHETPSNDS
notes: last residue S223; Vector pXJ41; also called c1 isoform; source: Jurkat, transiently transfected, living cells; COS-7, transiently transfected, in lysate; not shown: EGFP (with spacer GSGGGS), N-terminal, kept
[5]
  steady-state anisotropy, mean: 0.244
  steady-state anisotropy, median: 0.242

B5: EGFP-Nkrp1a (receptor, mouse (C57BL/6), UniProt P27811 1-227, looked up)
chain: MDTARVYFGLKPPRTPGAWHESPPSLPPDACRCPRSHRLALKLSCAGLILLVVTLIGMSVLVRVLIQKPSIEKCYVLIQENLNKTTDCSAKLECPQDWLSHRDKCFQVSHVSNTWEEGLVDCDGKGATLMLIQDQEELRFLLDSIKEKYNSFWIGLRYTLPDMNWKWINGSTLNSDVLKITGDTENDSCAAISGDKVTFESCNSDNRWICQKELYHETLSNYVGYGH
notes: last residue H227; Vector pXJ41; also called Nkrp1a1; a1 isoform; source: Jurkat, transiently transfected, living cells; COS-7, transiently transfected, in lysate; not shown: EGFP (with spacer GSGGGS), N-terminal, kept
[5]
  steady-state anisotropy, mean: 0.269
  steady-state anisotropy, median: 0.271

B6: Nkrp1f^ECTO (domain or fragment, mouse (C57BL/6), UniProt Q8VD98 67-217, looked up)
chain: QKPPIEKCSVAAQENRTELTGRSAILECPRYWHPHWNKCLFVSQISRPWAEGRDACSMEDAILLLIENKEELRFVQNLIKGKEQLFFIGLKYVQKEKIWKWIDGSILNPNLLRITGKDKENSCAIISHTEVFSDSCSSDNHWICQKTLIHV
notes: mouse (C57BL/6) Nkrp1f ectodomain with stalk, residues Q67-V217; Cloned into pET-30a(+) between NdeI and HindIII; an initiator Met may precede Q67 (surmise); The monomeric form bears cysteamine on C74; the dimeric form has a C74-C74 disulfide; also called recombinant ectodomain of Nkrp1f
[6]
  stoichiometry N: 2
